Measurements published in PMC11514458.

Columns and labels:
[1] = target: T1, BCDX2 complex (human, UniProt O15315;O43502;O75771;O43543 1-384;1-376;1-328;1-280); assay: EMSA; stronger than miniBRCA2; EMSA: 20 mM Tris-HCl pH 7.5, 2 mM MgCl2, 2 mM ATP, 37 C, 20 nM DNA, glutaraldehyde fixation; stopped-flow: 25 mM Tris-HCl pH 7.5, 5 mM MgCl2, 50 mM KCl, 2 mM ATP, 0.5 mM EDTA, 10% glycerol, 37 C; BLI: 50 mM Tris-HCl pH 7.5, 2 mM ATP, 50 mM KCl, 5 mM MgCl2, 0.05% Tween 20, room temperature; conditions: protein: recombinant; tags: Strep-tag and His-tag (XRCC2 N-terminal His); copies: 1;1;1;1; label: 5' FITC
T1 sequence 1: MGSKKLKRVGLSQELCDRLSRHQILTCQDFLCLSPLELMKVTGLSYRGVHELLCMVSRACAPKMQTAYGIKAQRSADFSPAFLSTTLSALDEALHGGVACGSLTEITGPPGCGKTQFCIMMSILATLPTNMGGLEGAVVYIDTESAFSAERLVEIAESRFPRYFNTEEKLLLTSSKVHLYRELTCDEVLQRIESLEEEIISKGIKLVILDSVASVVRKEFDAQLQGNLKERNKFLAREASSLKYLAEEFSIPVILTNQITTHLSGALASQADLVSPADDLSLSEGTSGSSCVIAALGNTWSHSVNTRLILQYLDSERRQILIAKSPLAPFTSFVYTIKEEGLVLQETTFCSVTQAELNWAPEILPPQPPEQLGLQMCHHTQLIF
T1 sequence 2: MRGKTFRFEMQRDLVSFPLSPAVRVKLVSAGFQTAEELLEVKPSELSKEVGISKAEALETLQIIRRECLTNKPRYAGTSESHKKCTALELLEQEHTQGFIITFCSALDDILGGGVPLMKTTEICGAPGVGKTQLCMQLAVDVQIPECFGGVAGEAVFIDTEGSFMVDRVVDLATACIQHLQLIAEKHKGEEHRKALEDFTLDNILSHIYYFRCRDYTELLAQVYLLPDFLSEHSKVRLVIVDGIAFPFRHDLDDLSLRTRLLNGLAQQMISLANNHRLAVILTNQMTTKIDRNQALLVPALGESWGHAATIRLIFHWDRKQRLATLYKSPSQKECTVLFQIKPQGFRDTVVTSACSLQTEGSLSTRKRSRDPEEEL
T1 sequence 3: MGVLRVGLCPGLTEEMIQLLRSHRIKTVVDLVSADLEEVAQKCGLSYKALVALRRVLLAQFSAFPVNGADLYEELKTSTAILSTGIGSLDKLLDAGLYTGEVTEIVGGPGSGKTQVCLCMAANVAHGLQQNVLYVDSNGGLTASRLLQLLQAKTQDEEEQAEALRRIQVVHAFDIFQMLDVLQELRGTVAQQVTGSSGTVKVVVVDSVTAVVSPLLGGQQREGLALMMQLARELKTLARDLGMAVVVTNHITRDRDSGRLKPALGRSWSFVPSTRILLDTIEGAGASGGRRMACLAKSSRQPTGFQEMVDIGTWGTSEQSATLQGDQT
T1 sequence 4: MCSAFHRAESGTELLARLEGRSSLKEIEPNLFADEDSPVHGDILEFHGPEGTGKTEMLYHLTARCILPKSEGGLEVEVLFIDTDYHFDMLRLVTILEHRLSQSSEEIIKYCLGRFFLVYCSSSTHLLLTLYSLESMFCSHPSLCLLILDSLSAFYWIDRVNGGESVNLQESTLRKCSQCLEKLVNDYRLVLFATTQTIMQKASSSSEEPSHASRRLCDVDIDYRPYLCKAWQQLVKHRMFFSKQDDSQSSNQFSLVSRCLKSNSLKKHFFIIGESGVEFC

[2] = target: T1, BCDX2 complex; assay: EMSA; significant binding; EMSA: 20 mM Tris-HCl pH 7.5, 2 mM MgCl2, 2 mM ATP, 37 C, 20 nM DNA, glutaraldehyde fixation; stopped-flow: 25 mM Tris-HCl pH 7.5, 5 mM MgCl2, 50 mM KCl, 2 mM ATP, 0.5 mM EDTA, 10% glycerol, 37 C; BLI: 50 mM Tris-HCl pH 7.5, 2 mM ATP, 50 mM KCl, 5 mM MgCl2, 0.05% Tween 20, room temperature; conditions: protein: recombinant; tags: Strep-tag and His-tag (XRCC2 N-terminal His); copies: 1;1;1;1; label: 5' FITC
[3] = target: T2, DX2 complex (human, UniProt O75771;O43543 1-328;1-280); assay: EMSA; strong binding; EMSA: 20 mM Tris-HCl pH 7.5, 2 mM MgCl2, 2 mM ATP, 37 C, 20 nM DNA, glutaraldehyde fixation; stopped-flow: 25 mM Tris-HCl pH 7.5, 5 mM MgCl2, 50 mM KCl, 2 mM ATP, 0.5 mM EDTA, 10% glycerol, 37 C; BLI: 50 mM Tris-HCl pH 7.5, 2 mM ATP, 50 mM KCl, 5 mM MgCl2, 0.05% Tween 20, room temperature; conditions: protein: recombinant; tags: His-tag; copies: 1;1; label: internal FITC; reversed fork of 4 strands with ssDNA overhang
T2 sequence 1: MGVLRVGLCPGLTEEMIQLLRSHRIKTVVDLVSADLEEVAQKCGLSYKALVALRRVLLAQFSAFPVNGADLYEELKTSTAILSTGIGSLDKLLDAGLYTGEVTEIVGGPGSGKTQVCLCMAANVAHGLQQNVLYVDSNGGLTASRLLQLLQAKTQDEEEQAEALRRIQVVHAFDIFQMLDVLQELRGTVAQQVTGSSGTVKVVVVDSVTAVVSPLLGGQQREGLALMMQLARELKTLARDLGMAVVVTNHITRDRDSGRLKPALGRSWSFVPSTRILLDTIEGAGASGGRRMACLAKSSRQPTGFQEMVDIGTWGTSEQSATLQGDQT
T2 sequence 2: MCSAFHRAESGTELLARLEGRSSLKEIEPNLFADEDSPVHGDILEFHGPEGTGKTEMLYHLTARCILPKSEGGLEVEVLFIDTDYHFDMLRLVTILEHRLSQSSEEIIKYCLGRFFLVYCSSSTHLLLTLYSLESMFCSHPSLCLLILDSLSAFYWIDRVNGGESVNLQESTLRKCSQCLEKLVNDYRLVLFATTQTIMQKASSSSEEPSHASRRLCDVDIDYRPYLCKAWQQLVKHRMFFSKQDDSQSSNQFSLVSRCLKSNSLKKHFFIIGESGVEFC

[4] = target: T1, BCDX2 complex; assay: as above; conditions: protein: recombinant; tags: Strep-tag and His-tag (XRCC2 N-terminal His); copies: 1;1;1;1; label: internal FITC; reversed fork of 4 strands with ssDNA overhang
[5] = target: T3, D(R266A)X2 (UniProt O75771;O43543 1-328;1-280, R266A); assay: EMSA; not significantly affected; EMSA: 20 mM Tris-HCl pH 7.5, 2 mM MgCl2, 2 mM ATP, 37 C, 20 nM DNA, glutaraldehyde fixation; stopped-flow: 25 mM Tris-HCl pH 7.5, 5 mM MgCl2, 50 mM KCl, 2 mM ATP, 0.5 mM EDTA, 10% glycerol, 37 C; BLI: 50 mM Tris-HCl pH 7.5, 2 mM ATP, 50 mM KCl, 5 mM MgCl2, 0.05% Tween 20, room temperature; conditions: protein: recombinant; copies: 1;1; label: internal FITC; reversed fork of 4 strands with ssDNA overhang
T3 sequence 1: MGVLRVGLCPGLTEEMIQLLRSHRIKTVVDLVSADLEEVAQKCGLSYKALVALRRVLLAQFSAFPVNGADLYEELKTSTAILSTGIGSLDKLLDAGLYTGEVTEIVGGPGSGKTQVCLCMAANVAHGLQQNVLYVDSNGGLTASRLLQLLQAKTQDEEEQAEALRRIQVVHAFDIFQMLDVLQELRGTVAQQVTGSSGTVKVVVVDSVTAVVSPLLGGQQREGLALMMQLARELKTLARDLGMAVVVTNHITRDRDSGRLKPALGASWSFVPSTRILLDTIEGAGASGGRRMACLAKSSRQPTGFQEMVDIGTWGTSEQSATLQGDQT
T3 sequence 2: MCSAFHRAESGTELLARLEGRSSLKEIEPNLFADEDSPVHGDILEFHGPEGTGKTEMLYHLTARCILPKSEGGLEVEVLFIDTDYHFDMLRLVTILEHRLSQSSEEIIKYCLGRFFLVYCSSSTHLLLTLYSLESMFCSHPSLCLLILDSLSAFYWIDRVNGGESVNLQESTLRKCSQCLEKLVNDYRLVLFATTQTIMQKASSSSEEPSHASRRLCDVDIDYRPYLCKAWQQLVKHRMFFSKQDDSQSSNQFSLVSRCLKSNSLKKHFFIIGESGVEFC

[6] = target: T4, DX2(R159A) (UniProt O75771;O43543 1-328;1-280, R159A); assay: as above; conditions: protein: recombinant; copies: 1;1; label: internal FITC; reversed fork of 4 strands with ssDNA overhang
T4 sequence 1: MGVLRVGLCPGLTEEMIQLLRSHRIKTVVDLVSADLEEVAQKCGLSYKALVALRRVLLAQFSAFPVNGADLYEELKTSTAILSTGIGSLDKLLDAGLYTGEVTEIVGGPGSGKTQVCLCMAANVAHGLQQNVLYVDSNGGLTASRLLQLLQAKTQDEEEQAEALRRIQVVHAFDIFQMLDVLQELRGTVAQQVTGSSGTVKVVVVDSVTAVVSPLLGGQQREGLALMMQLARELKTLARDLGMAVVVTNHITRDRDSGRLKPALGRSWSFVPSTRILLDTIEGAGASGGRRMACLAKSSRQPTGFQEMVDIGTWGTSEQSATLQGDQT
T4 sequence 2: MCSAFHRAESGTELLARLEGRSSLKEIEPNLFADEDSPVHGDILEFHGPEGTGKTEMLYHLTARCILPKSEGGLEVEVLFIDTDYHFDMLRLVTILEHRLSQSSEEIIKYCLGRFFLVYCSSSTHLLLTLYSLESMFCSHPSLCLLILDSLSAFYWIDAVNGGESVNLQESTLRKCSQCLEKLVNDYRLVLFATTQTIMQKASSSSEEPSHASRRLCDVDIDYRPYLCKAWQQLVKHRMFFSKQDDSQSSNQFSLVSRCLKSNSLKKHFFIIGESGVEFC

## GTACAAAGCTCTGGCATGATACTATGCGGC (ssDNA) [ssDNA 30mer]
[1]
  binding result: binds

## AGAAGAGAGCAGAGG (ssDNA) [ssDNA 15mer]
[2]
  binding result: binds

B1: RVF1 (mixed)
DNA 1: TGCCGAATTCTACCAGTGCCAGTGATGGACATCTTTGCCCACGTTGACCC
DNA 2: TGGGTCAACGTGGGCAAAGATGTCCTAGCAATGTAATCGTCTATGACGTT
DNA 3: TCGGATCCTCTAGACAGCTCCATGATCACTGGCACTGGTAGAATTCGGC
DNA 4: CAACGTCATAGACGATTACATTGCT
modifications: internal FITC at Z after nt 20 of strand 3
[3]
  binding result: binds
[4]
  binding result: binds
[5]
  binding result: binds
[6]
  binding result: binds

## CTAAGTTCGTCAGGATTCCAGCATTCTAACAGTCATAGCG (ssDNA) [ssDNA 40mer]
[1]
  binding result: binds
